Experimental data: patent US12416034B2, “Recombinant production of steviol glycosides” (EVOLVA SA, priority 2011, dated 2025)

Experiments:
EUGT11 = assay: Inhibition studies of RebD production; type: biochemical, Oryza sativa; conditions: Steviva 500 μg/ml, UDP 500 μM; around 30 μM without any addition
Experimental: Experiments were conducted to determine if factors such as sucrose, fructose, UDP, product (RebD) and impurities in the less pure Stevia extracts raw materials inhibited the extent of the conversion of steviol glycoside substrates to RebD. In a standard reaction mixture, excess of the potential inhibitors (sucrose, fructose, UDP, RebD, or a commercial blend of steviol glycosides (Steviva, Steviva Brands, Inc., Portland, OR)) were added. Following incubation, RebD-production was quantified. […] The RebD that was produced was less than 7 μM. This inhibition can be alleviated in the in vivo or in vitro reactions for RebD production, by including an UDP recycling system to UDP-glucose, either by yeast or by an added SUS (sucrose synthase enzyme) in conjunction with sucrose.

[1] = Codon optimized UGT cell lysate assay, 13-SMG as substrate; type: biochemical; conditions: 0.25 mM 13-SMG, 24 hours, 30° C.
Experimental: (§1) The wild-type, DNA 2.0, and GeneArt sequences were assayed for in vitro activity to compare reactivity on substrates in the steviol glycosides pathway. UGTs were inserted in high copy (2p) vectors and expressed from a strong constitutive promoter (GPD1) (vectors P423-GPD, P424-GPD, P425-GPD, and P426-GPD). The plasmids were transformed individually into the universal Watchmaker strain, EFSC301 (described in Example 3 of WO2011/153378) and assays were carried out using cell lysates prepared from equal amount of cells (8 OD units). For the enzymatic reactions, 6 μL of each cell lysate were incubated in a 30 μL reaction with 0.25 mM steviol (final concentration) to test UGT74G1 and UGT85C2 clones, and with 0.25 mM 13-SMG (13SMG) (final concentration) to test 76G1 and 91D2e UGTs. Assays were carried out for 24 hours at 30° C. Prior to LC-MS analysis, one volume of 100% DMSO was added to each reaction, samples were centrifuged at 16000 g, and the supernatants analysed.

[2] = Denaturation temperature by differential scanning calorimetry (DSC); type: physicochemical; conditions: 6HIS-purified enzymes, 91D2e-b GST-purified
Experimental: To assess the thermal stability of EUGT11 and to compare it with the other UGTs in the steviol glycosylation pathway, denaturation temperatures of the proteins were determined using differential scanning calorimetry (DSC). Use of DSC thermograms to estimate denaturation temperatures, TD, is described, for example, by E. Freire in Methods in Molecular Biology 1995, Vol. 40 191-218. DSC was performed (using 6HIS-purified EUGT11, yielding an apparent TD of 39° C.; while when GST-purified 91D2e-b was used, the measured TD was 79° C. For reference, the measured TD when using 6HIS-purified UGT74G1, UGT76G1 and UGT85C2 was 86° C. in all cases. One of skill in the art will recognize that enzyme immobilization or addition of thermal protectants can be added to the reactions to improve stability of the protein. Non-limiting examples of thermal protectants include trehalose, glycerol, ammonium sulphate, betaine, trimethylamine oxide, and proteins.

[3] = In vitro transcribed and translated UGTs incubated with steviol, LC-MS; type: biochemical
Experimental: (§2) EUGT11 was produced by in vitro transcription and translation, and incubated with various substrates in the RebD pathway. Similar experiments were carried out using in vitro transcribed and translated UGT91D2e. […] Compounds 1-3 were identified solely by mass and expected retention time. The numbers shown in FIG. 3 are the average peak height of the indicated steviol glycoside obtained from a LC-MS chromatogram, and, although not quantitative, can be used to compare the activity of the two enzymes. […] Both enzymes were able to convert steviol 19-O-monoglucoside (SMG) to compound 1, with EUGT11 being about ten times more efficient than UGT91D2e at converting 19-SMG to compound 1.

[4] = In vitro transcribed and translated UGTs incubated with rubusoside, LC-MS; type: biochemical
Experimental: as §2
The left panel of FIG. 5 contains LC-MS chromatograms of the conversion of rubusoside to stevioside. The right panel of FIG. 5 contains chromatograms of the conversion of rubusoside to stevioside, to compound 2, and to compound 3 (RebE). Conversion of rubusoside to compound 3 requires two consecutive 1, 2-O-glycosylations at the 19- and 13-positions of steviol.

[5] = Screening by LC-MS of E. coli lysates, rebaudioside A as substrate; type: biochemical; conditions: RebA substrate
Experimental: (§3) To analyze the approximately 1600 mutant clones of UGT91D2e, the E. coli transformants were grown overnight at 30° C. in 1 ml of NZCYM containing ampicillin (100 mg/1) and chloramphenicol (33 mg/1), in 96-well format. The next day, 150 μl of each culture was inoculated into 3 ml NZCYM containing ampicillin (100 mg/1), chloramphenicol (33 mg/1), arabinose 3 mM, IPTG 0.1 mM and ethanol 2% v/v, in 24-well format, and incubated at 20° C. and 200 rpm for ˜20 h. The following day, cells were spun down and pellets were resuspended in 100 μl of lysis buffer containing 10 mM Tris-HCl pH 8, 5 mM MgCl2, 1 mM CaCl2) and complete mini protease inhibitor EDTA-free (3 tablets/100 ml) (Hoffmann-La Roche, Basel, Switzerland) and frozen −80° C. for at least 15 minutes to promote cell lysis. […] In each case, the resulting compounds, stevioside or rebaudioside D (rebD), were measured by LC-MS. Results were analyzed in comparison with the stevioside or rebD produced by the lysates expressing the corresponding controls (91D2e, 91D2e-b, EUGT11 and the empty plasmid). […]
(§4) Half of the 1600 clones and the corresponding controls were assayed for their capacity to glycosylate rubusoside and rebaudiosideA. Stevioside and RebD were quantified by LC-MS. […]

[6] = In vitro transcribed and translated UGTs incubated with RebA and UDP-glucose, LC-MS; type: biochemical; conditions: LC-MS chromatograms, FIG. 4
Experimental: In vitro transcription and translation of these genes was performed, and the resulting UGTs incubated with RebA and UDP-glucose. Following incubation, the reactions were analyzed by LC-MS. […] See LC-MS chromatograms in FIG. 4. As shown in the left panel of FIG. 4, UGT91D2e produced a trace amount of RebD when RebA was used as the feedstock.
as §2
Both enzymes were able to convert RebA to RebD. However, EUGT11 was approximately 30 times better at converting RebA to RebD. Overall, it appears that EUGT11 produces more product than UGT91D2e in all reactions (with similar time, concentrations, temperature, and purity of enzyme) except the conversion of rubusoside to stevioside.

[7] = Screening by LC-MS of E. coli lysates, rubusoside as substrate; type: biochemical
Experimental: as §3, §4

[8] = Codon optimized UGT cell lysate assay, steviol as substrate; type: biochemical; conditions: 0.25 mM steviol, 24 hours, 30° C.
Experimental: as §1

[9] = tested on: S. cerevisiae strain BY4741; assay: Steviol-feeding experiment of S. cerevisiae strain BY4741; type: cell-based; conditions: co-expressed with wild type UGT74G1, steviol feeding
Experimental: Further experiments were conducted to determine if the codon-optimized UGT85C2 could reduce 19-SMG accumulation and increase rubusoside and higher glycosylated steviol glycosides production. The production of 19-SMG and rubusoside were analysed in a steviol-feeding experiment of S. cerevisiae strain BY4741 expressing the wild type UGT74G1 as well as the codon-optimized UGT85C2 from high copy (2p) vectors under strong constitutive promoter (GPD1) (vectors P426-GPD and P423-GPD, respectively). Whole culture samples (without cell removal) were taken and boiled in an equal volume of DMSO for total glycosides levels. Intracellular concentrations reported were obtained by pelleting cells, and resuspending in 50% DMSO to the volume of the original culture sample taken, followed by boiling. The “total” glycosides level and the normalized intracellular level then were measured using LC-MS. Using wild type UGT74G1 and wild type UGT85C2, approximately 13.5 μM rubusoside was produced in total with a maximum normalized intracellular concentration of about 7 μM. In contrast, when wild type UGT74G1 and codon-optimized UGT85C2 were used, a maximum of 26 μM rubusoside was produced, or approximately double of what was produced using the wild type UGT85C2. Additionally, the maximum normalized intracellular concentration of rubusoside was 13 μM, again an approximate doubling of what was produced using wild type UGT85C2. […] Consequently, about 10 μM less total 19-SMG was measured for the codon-optimized UGT85C2.

In the case of `O=c1ccn([C@@H]2O[C@H](COP(=O)(O)OP(=O)(O)O)[C@@H](O)[C@H]2O)c(=O)[nH]1` [UDP], the “RebD production in presence of potential inhibitor” value (EUGT11) is reported as “less than 7 μM”.

B1: UGT76G1: S. rebaudiana UGT, SEQ ID NO:7 (protein, listed as Stevia rebaudiana)
chain: MENKTETTVRRRRRIILFPVPFQGHINPILQLANVLYSKGFSITIFHTNFNKPKTSNYPHFTFRFILDNDPQDERISNLPTHGPLAGMRIPIINEHGADELRRELELLMLASEEDEEVSCLITDALWYFAQSVADSLNLRRLVLMTSSLFNFHAHVSLPQFDELGYLDPDDKTRLEEQASGFPMLKVKDIKSAYSNWQILKEILGKMIKQTKASSGVIWNSFKELEESELETVIREIPAPSFLIPLPKHLTASSSSLLDHDRTVFQWLDQQPPSSVLYVSFGSTSEVDEKDFLEIARGLVDSKQSFLWVVRPGFVKGSTWVEPLPDGFLGERGRIVKWVPQQEVLAHGAIGAFWTHSGWNSTLESVCEGVPMIFSDFGLDQPLNARYMSDVLKVGVYLENGWERGEIANAIRRVMVDEEGEYIRQNARVLKQKADVSLMKGGSSYESLESLVSYISSL
In the case of B1, the “activity of GeneArt lysate as a percentage of the wild-type enzyme” value [1] is reported as 170% and the “denaturation temperature TD” value [2] is reported as 86 °C.

B2: UGT91D2e: UGT91D2e polypeptide from Stevia rebaudiana, SEQ ID NO:5 (protein, listed as Stevia rebaudiana)
chain: MATSDSIVDDRKQLHVATFPWLAFGHILPYLQLSKLIAEKGHKVSFLSTTRNIQRLSSHISPLINVVQLTLPRVQELPEDAEATTDVHPEDIPYLKKASDGLQPEVTRFLEQHSPDWIIYDYTHYWLPSIAASLGISRAHFSVTTPWAIAYMGPSADAMINGSDGRTTVEDLTTPPKWFPFPTKVCWRKHDLARLVPYKAPGISDGYRMGLVLKGSDCLLSKCYHEFGTQWLPLLETLHQVPVVPVGLLPPEIPGDEKDETWVSIKKWLDGKQKGSVVYVALGSEVLVSQTEVVELALGLELSGLPFVWAYRKPKGPAKSDSVELPDGFVERTRDRGLVWTSWAPQLRILSHESVCGFLTHCGSGSIVEGLMFGHPLIMLPIFGDQPLNARLLEDKQVGIEIPRNEEDGCLTKESVARSLRSVVVEKEGEIYKANARELSKIYNDTKVEKEYVSQFVDYLEKNARAVAIDHES
For B2, the “use of steviol as a substrate” value [3] was “not able to use steviol as a substrate”, the “amount of compound 3 (RebE) produced from rubusoside” value [4] was “trace amount” and the “RebD formed by lysates” value [5] was ~1 µM. The “activity of GeneArt lysate as a percentage of the wild-type enzyme” value [1] was 130%, the “amount of RebD produced when RebA was used as the feedstock” value [6] was “trace amount” and the “stevioside formed by lysates” value [7] was “approximately 0.5 μM”.

B3: UGT85C2: S. rebaudiana UGT, SEQ ID NO:3 (protein, listed as Stevia rebaudiana)
chain: MDAMATTEKKPHVIFIPFPAQSHIKAMLKLAQLLHHKGLQITFVNTDFIHNQFLESSGPHCLDGAPGFRFETIPDGVSHSPEASIPIRESLLRSIETNFLDRFIDLVTKLPDPPTCIISDGFLSVFTIDAAKKLGIPVMMYWTLAACGFMGFYHIHSLIEKGFAPLKDASYLTNGYLDTVIDWVPGMEGIRLKDFPLDWSTDLNDKVLMFTTEAPQRSHKVSHHIFHTFDELEPSIIKTLSLRYNHIYTIGPLQLLLDQIPEEKKQTGITSLHGYSLVKEEPECFQWLQSKEPNSVVYVNFGSTTVMSLEDMTEFGWGLANSNHYFLWIIRSNLVIGENAVLPPELEEHIKKRGFIASWCSQEKVLKHPSVGGFLTHCGWGSTIESLSAGVPMICWPYSWDQLTNCRYICKEWEVGLEMGTKVKRDEVKRLVQELMGEGGHKMRNKAKDWKEKARIAIAPNGSSSLNIDKMVKEITVLARN
With B3 the “activity of GeneArt lysate as a percentage of the wild-type enzyme” value [8] was 340%, the “maximum intracellular concentration of 19-SMG” value [9] was 35 µM and the “maximum normalized intracellular concentration of rubusoside” value [9] was “about 7 μM”. For the same molecule, the “rubusoside produced in total” value [9] was “approximately 13.5 μM” and the “denaturation temperature TD” value [2] was 86 °C.
